Key:
Test in all cases: flow cytometry on cells
[1] = biological target: PD-1 expressed on Flp-In CHO cells (Homo sapiens (), UniProt Q15116)
[2] = biological target: PD-L1 expressed on Flp-In CHO cells (Homo sapiens (), UniProt Q9NZQ7)
[3] = biological target: OX40 expressed on Flp-In CHO cells (Homo sapiens (), UniProt P43489)
OX40 expressed on Flp-In CHO cells, sequence (P43489 29-277): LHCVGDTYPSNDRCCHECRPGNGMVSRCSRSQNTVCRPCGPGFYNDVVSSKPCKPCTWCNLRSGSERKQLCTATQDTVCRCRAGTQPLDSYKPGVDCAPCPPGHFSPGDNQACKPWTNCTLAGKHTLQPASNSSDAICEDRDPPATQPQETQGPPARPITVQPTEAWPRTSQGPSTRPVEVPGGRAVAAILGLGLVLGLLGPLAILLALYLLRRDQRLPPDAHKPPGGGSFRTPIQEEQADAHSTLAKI

PD-1 expressed on Flp-In CHO cells, sequence (Q15116 25-288): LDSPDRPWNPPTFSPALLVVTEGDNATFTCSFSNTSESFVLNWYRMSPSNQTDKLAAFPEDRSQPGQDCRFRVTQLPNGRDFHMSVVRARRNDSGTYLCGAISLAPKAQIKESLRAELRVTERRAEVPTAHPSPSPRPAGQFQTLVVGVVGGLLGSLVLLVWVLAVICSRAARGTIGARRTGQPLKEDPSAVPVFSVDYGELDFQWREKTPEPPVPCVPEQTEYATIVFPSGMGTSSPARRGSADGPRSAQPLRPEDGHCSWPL
PD-L1 expressed on Flp-In CHO cells, sequence (Q9NZQ7 19-290): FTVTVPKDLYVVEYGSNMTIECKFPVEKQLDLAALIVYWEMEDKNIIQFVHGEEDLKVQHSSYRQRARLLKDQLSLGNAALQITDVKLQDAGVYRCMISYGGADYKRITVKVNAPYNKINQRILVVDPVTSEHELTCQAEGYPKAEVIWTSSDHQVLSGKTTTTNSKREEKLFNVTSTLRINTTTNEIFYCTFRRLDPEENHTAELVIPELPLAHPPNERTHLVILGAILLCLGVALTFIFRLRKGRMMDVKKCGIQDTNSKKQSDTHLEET

B1: tPD1.16 full-length human IgG1 (antibody, V domains shown)
VH: QVQLVESGGGVVQPGRSLRLSCAASGFTFSNYGMHWVRQAPGKGLEWVAVIWYDGTNKFYADSVKGRFTISRDNSKNTLYLQMNSLRAEDTAVYYCATNSDDYWGQGTLVTVSS
VL: AIQMTQSPSSLSASVGDRVTITCRASQDIRNDLGWYQQKPGKAPKLLIYAASLLRSGVPSRFSGSGSGTDFTLTISSLQPEDFATYYCLQDNNYPRTFGQGTKVEIK
[1]
  EC50: 2.8 nM

B2: tPDL1.3 full-length human IgG1 (antibody, V domains shown)
VH: QVQLVQSGAEVKKPGASVKVSCKASGFTFTSYDINWVRQATGQGLEWMGWMHPNSGITGYAQKFQGRVTMTRNTSISTAYMELSSLSSEDTAVYFCARYYYVSGSYDYWGQGTLVTVSS
VL: EIVMTQSPATLSLSPGERATLSCWASQSVSSSYLSWYQQKPGQAPRLLIYGASTRATGIPARFSGSGSGTDFTLTISSLQPEDFAVYYCQQDYNLPYTFGQGTKLEIK
[2]
  EC50: 0.3 nM

B3: tOX40.24 full-length human IgG1 (antibody, V domains shown)
VH: QVQLVESGGGVVQPGRSLRLSCAASGFTFRSYGMHWVRQAPGKGLEWLAIIWYDGSNKYYADSVKGRLTISRDNSKNTLYLQMNSLRAEDTAVYYCARDTQVAEAGFPHHHYYGMDVWGQGTTVTVSS
VL: not shown
[3]
  EC50: 0.7 nM

From article PMC7531523 (mAbs, 2020)
